{
  "source": "patent US20020115592A1",
  "about": "“Pharmaceutical compositions containing insulin” (Provalis UK Limited, priority 1998, published 2002)",
  "key": {"[1]": {"assay": "Dissolution of insulin (optionally with aprotinin) in non-aqueous hydrophilic solvent/cosolvent", "format": "physicochemical", "settings": "Insulin 7 mg"}, "[2]": {"assay": "Appearance on addition of Akoline to the insulin solution", "format": "physicochemical", "settings": "Insulin 7 mg"}, "[3]": {"settings": "Gly (20 μl), PEG/L-lactic (20 μl/10 mg)"}, "[4]": {"settings": "Gly (20 μl), PEG/NaAc (20 μl/10 mg)"}, "[5]": {"settings": "Gly (40 μl), Acetic acid (10 mg)"}, "[6]": {"settings": "Gly (40 μl), L-lactic acid (10 mg)"}, "[7]": {"settings": "PD (40 μl), Na-L lactate (10 mg)"}, "[8]": {"settings": "PEG (25 μl), DL-lactic acid (25 μl)"}, "[9]": {"settings": "PEG (50 μl), Glycerol/TEA (50 μl/10 gl)"}, "[10]": {"settings": "PG (40 μl), Acetic acid (10 mg)"}, "[11]": {"settings": "PG (40 μl), Caproic acid (10 mg)"}, "[12]": {"settings": "PG (40 μl), Citric acid (10 mg)"}},
  "data": [
    {"substance": "Insulin", "values": [
      {"measurement": "Soluble?", "setting": "[1]; [3]", "value": "Yes"},
      {"measurement": "Soluble?", "setting": "[1]; [4]", "value": "Yes"},
      {"measurement": "Soluble?", "setting": "[1]; [5]", "value": "Yes"},
      {"measurement": "Soluble?", "setting": "[1]; [6]", "value": "Yes"},
      {"measurement": "Soluble?", "setting": "[1]; Gly (40 μl), NaAc (10 mg)", "value": "Yes"},
      {"measurement": "Soluble?", "setting": "[1]; PD (20 μl), benz. SO3H (10 mg)", "value": "Yes"},
      {"measurement": "Soluble?", "setting": "[1]; PD (40 μl), L-lactic (10 mg)", "value": "Yes"},
      {"measurement": "Soluble?", "setting": "[1]; [7]", "value": "Yes"},
      {"measurement": "Soluble?", "setting": "[1]; PD (40 μl), NaAc (10 mg)", "value": "Yes"},
      {"measurement": "Soluble?", "setting": "[1]; PEG (20 μl), L-lactic (10 mg)", "value": "Yes"},
      {"measurement": "Soluble?", "setting": "[1]; PEG (20 μl), NaAc (10 mg)", "value": "Yes"},
      {"measurement": "Soluble?", "setting": "[1]; [8]", "value": "Yes"},
      {"measurement": "Soluble?", "setting": "[1]; PEG (25 μl), DL-lactic acid (25 μl), listed as with Akoline/POE", "value": "Yes"},
      {"measurement": "Soluble?", "setting": "[1]; PEG (40 μl), camitine (10 mg)", "value": "Yes"},
      {"measurement": "Soluble?", "setting": "[1]; [9]", "value": "Yes"},
      {"measurement": "Soluble?", "setting": "[1]; [10]", "value": "Yes"},
      {"measurement": "Soluble?", "setting": "[1]; [11]", "value": "Yes"},
      {"measurement": "Soluble?", "setting": "[1]; [12]", "value": "Yes"},
      {"measurement": "Addition of Akoline", "setting": "[2]; [3]", "value": "Turbid"},
      {"measurement": "Addition of Akoline", "setting": "[2]; [4]", "value": "Clear"},
      {"measurement": "Addition of Akoline", "setting": "[2]; [5]", "value": "Opaque"},
      {"measurement": "Addition of Akoline", "setting": "[2]; [6]", "value": "Turbid"},
      {"measurement": "Addition of Akoline", "setting": "[2]; Gly (40 μl), NaAc (10 mg)", "value": "Translucent"},
      {"measurement": "Addition of Akoline", "setting": "[2]; PD (20 μl), benz. SO3H (10 mg)", "value": "Clear"},
      {"measurement": "Addition of Akoline", "setting": "[2]; PD (40 μl), L-lactic (10 mg)", "value": "Turbid"},
      {"measurement": "Addition of Akoline", "setting": "[2]; [7]", "value": "Clear"},
      {"measurement": "Addition of Akoline", "setting": "[2]; PD (40 μl), NaAc (10 mg)", "value": "Clear"},
      {"measurement": "Addition of Akoline", "setting": "[2]; PEG (20 μl), L-lactic (10 mg)", "value": "Translucent"},
      {"measurement": "Addition of Akoline", "setting": "[2]; PEG (20 μl), NaAc (10 mg)", "value": "Clear"},
      {"measurement": "Addition of Akoline", "setting": "[2]; [8]", "value": "Cloudy"},
      {"measurement": "Addition of Akoline", "setting": "[2]; PEG (25 μl), DL-lactic acid (25 μl), (Akoline/POE)", "value": "Suspension"},
      {"measurement": "Addition of Akoline", "setting": "[2]; PEG (40 μl), camitine (10 mg)", "value": "Clear solution"},
      {"measurement": "Addition of Akoline", "setting": "[2]; [9]", "value": "Suspension"},
      {"measurement": "Addition of Akoline", "setting": "[2]; [10]", "value": "Translucent"},
      {"measurement": "Addition of Akoline", "setting": "[2]; [11]", "value": "Translucent"},
      {"measurement": "Addition of Akoline", "setting": "[2]; [12]", "value": "Translucent"}
    ]}
  ]
}
